From patent US20230226096A1 (Orna Therapeutics, Inc., priority 2020, published 2023)

B1: Human pegivirus isolate JD2B8C (nucleic acid, listed as Pegivirus sp.)
DNA: TGGTCACCTTGGTAGCCACTATAGGTGGGTCTTAAGAGAAGGTTAAGATTCCTCTTGTGCCTGCGGCGAGACCGCGCACGGTCCACAGGTGTTGGCCCTACCGGTGTGAATAAGGGCCCGACGTCAGGCTCGTCGTTAAACCGAGCCCATTTCCCGCCTGGGCAAACGACGCCCACGTACGGTCCACGTCGCCCTTTTAATGTCTCTCTTGACCAATAGGTTCATCCGGCGAGTTGACAAGGACCAGTGGGGGCCGGGGGTCACAGGGATGGACCCTGGGCCCTGCCCTTCCCGGCGGGGTGGGGAAAGCATGGGGCCACCCAGCTCCGCGGCGGCCTGCAGCCGGGGTAGCCCAAGAACCTTCGGGTGAGGGCGGGTGGCATTTTTCTTCCTATACCGATC
B2: Sakobuvirus A FFUP1 (1x mut) (nucleic acid)
DNA: TCACGCGCTTTTCCGGTGGTCACCCACCGTTAGGGAGCGCCAGCGTTCGCGCTTCCGCTACCAGGTGACACACTCCTTTCCCCTCCCCCATTCCCGTTCCCATCCTCTGGACTGGTTTCTCCTCACGATTGACCAGCAGCTGGGAGCTGTTACCAGACGTTGGACAGTAAGTCCCGGATGCACTATAGGGCTGGTGGCTAGTGCTTGGTAAGCACTCAACGCCATACCTAATGTGTACCTCGGCTTGCCCTCCTGGTCGTGGTGACCGGCTGTTTCTCTTCCCTTGGCTCCAGACGGGCTGGTGTCCTACCACCACCGTTGCATGCAGACCTCCCCCTGCGCACTCGAACGCCCTGTCCCAGCAGGGTTAGTATGTGCTGTGCAGATCTGCATGTGACACCCCATCCACTGGTAGAGCAGGAAGTTGCCCTAGCTAACGCGGCAAGTATTACTTTCCGCTACACGTCCTTGAGATTCCTCGGACCTCTGGAACTAGGGTGACTGTGGGCTTGGGAAAACCCACCTTGGTCCTGTACTGCCTGATAGGGTCGCGGCTGGCCGACCAGTGGATGTAGCCAGTTGTTTTGGGAT
B3: Human pegivirus isolate JD2B1I (nucleic acid, listed as Pegivirus sp.)
DNA: TCAGGGTTGGTAGGTCGTAAATCCCGGTCACCTTGGTAGCCACTATAGGTGGGTCTTAAGAGAAGGTTAAGATTCCTCTTGTGCCTGCGGCGAGACCGCGCACGGTCCACAGGTGTTGGCCCTACCGGTGGGAATAAGGGCCCGACGTCAGGCTCGTCGTTAAACCGAGCCCGTCACCCACCTGGGCAAACGACGCCCACGTACGGTCCACGTCGCCCTTCA
B4: Pronghorn antelope pestivirus (nucleic acid, listed as Pestivirus sp.)
DNA: GTATACGCAGTTAGTTCATCCTGTGTATACAGATTGGAGACTCTAAAAACAACGATTCGGAATAGGGGCCCGCGGCGAAGACCGAAGACAGGCTAACCATGCCGTTAGTAGGGCTAGCACCAAAACGCGGGAACTAGACACTTAGGAGAGTGGTCTGGCTACTCTAAGAGGTGAGTACACCTTAACCGTCAAGGGTTCTACTCCTCAGTTGAGGACTAGAGATGCCCTGTGGACGGGGGCATGCCCAAGAGTTAGCTTAGCCGGGGCGGGGGTTGTTCCGGTGAAAGTAGCAATATTGACCACACTGCCTGATAGGGCGGAGCAGGCCCCCTAGGTAGTCTAGTATAAAATGTCTGCTGTACATGGCAC
B5: Kobuvirus SZAL6: "Kobuvirus SZAL6 IRES", one of the selected IRES sequences, SEQ ID NOs: 348-389 (nucleic acid, listed as Kobuvirus sp.)
DNA: TTTCACACCCTCTTTTCCGGTGGTCCGGACCCAGACCACCGTTACTCCATTCAGCTACTTCGGTACCTGTTCGGAGGAATTAAACGGGCACCCTACCCAAGGGTTACATGGGACCATATTCCTCCTCCCCTGTAACTTTAAGTTTTGTGCCCGTATTCTTGACTCCAGGCGGATGTTGTGTCGCCCGTCCTGTGAACAAACAGCTAGACACTTTCCTCCCCTCCCTCTGGGCTGCTCCGGCAGTCCACTCCCTCCCCCCAGCGTAACATGCCCCGCTGGAGTGATGCACCTGGAAGTCGTGGACGTGGGTTAGTAACTTCGGTGAAAACCCACTATAATGACAACTGGTTGACCCCCACACTCAAAGGACTCGAGTCTTTCTCCCTTAAGGCTAGCCCGGCCACATGAATTTGCAGCTGGCAACTAGTGAGTCCACCATGTCCCGCAACCTCGGCTGCGGAGTGCTGTTCCCCAAGCGTATGCCTTCCTTCTGTAAGAGTGCGCCTGGCAAGCACATCTGAGAAGTCGTTCCGCTGCGTCGTGCCAACCTGGCGACAGGTGACCCAGTGTGCGTAGACTTCTTCCGGATTCGTCCGGCTCTTCTCTAGGAAACATGCGTGTAAGGTTCATGTGCCAAAGCCCTGCGCGCGGTGTTCTTCTACTGCCCTAGGAATGTGCCGCAGGTACCCCTACTTCGGTAGGGATCTGAGCGGTAGCTAATTGTCTACGGGTAGTTTCATTTCCATCTTCTCTTCAGGTCGACATC
B6: Pegivirus K (nucleic acid)
DNA: AGAATGGTGTGATCCGTCGCCGCTCCAGCGGAAAGCGGGCGGGATCTAGTGGTTAGGGTTGTTCGCGTAAATCCCACACTAGTGGTACGCTCGTATAACGTGGGAGCAGCCGGTGGGGTCGACCCCCCACCTGGCGGCTGCTGAGCACCGGACGAAGCGCGGGGGGTGAACGCTAACCCGCGGCCCGGGCTGCCAACGTTAGGCACGTCTTGGCTGGAAGACGTTAAACACAGGGCCCCCCCTCAACCCTGATCCGAGGCCAGAGACCAAGGTACGCCGCCCTTTTAAAGGCGTTACTCGTCCAATAGGATCTCTCCGGCGGGTTGTCAAACCTTGCTGGCCCTGGTGATGGTTACGGGAGGGGGTGGGGCGGGGAGTAGAAGCCCCGCCCGGCATGGGGGTACCAAGCTCGGCACGCCCAGCACGCGTGGCGTAGGGGAAAAATCCTTCGGGTGACCCCTGGTACCATAAAGTAATTAACATGAGCATGCCGCTAGGGTGTGCTTTTTCTTCCTTCCTTGGGAAGGCGGTGGCACC
modifications: Pegivirus K
B7: Simian pegivirus (nucleic acid, listed as Pegivirus sp.)
DNA: GGGGAATCTCACCCCCCGTCCGGTTCCGGAAGAATCGGAAACCGACACCCTGACCAATCATTCTTGATCATAGAGTGGATGTTAGTGAAAGCCAGACGAAAGCCGGCGGATGGGTGGTGACAGGGTTGGTAGGTCGTAAATCCCGGCCACCCTGGTACCCGGTATAAGTTGGGCGGAAGCTGACTGAAGCTCCGTGCTCTTTTCTGTGCGTTCTTGGTGCACGGTCCACAGGTGACGCCTATACCGGTGTGAATAATAGGCCGACTCGAGCGGAGTCGTTAAACTGAGAACCTCCATACGGATGGCAACTTGGCTTGCGTACGGGGACGCCGCTAAAGTCACAGTGGGTTAAGTCCGGCGGGTTGACAACCCCAGCAAGGCGAGGGGGTCCTATTGTTGGACTCTGCCAGTTCCCGGTGGAGGTAGGCATGGGGTGGCCCAGCTCCGCGGCGCGCTACAGCCGGGGTAGCCCAAAATCCGAAAGGTGAGGGCGGGCCACATGTCCGAAATTTAGTCAAGC
B8: Pestivirus giraffe-1 (nucleic acid, listed as Pestivirus sp.)
DNA: GTATACGAGTTTAGCTCAATCCTCGTATACAATATTGGGCGTCACCAAATATAGATTTGGCATAGGCAACACCCCGATGCGAAGGCCGAAAAGGGCTAACCATGCCCTTAGTAGGACTAGCAAAAAATCGGGGACTAGCCCAGGTGGTGAGCTTCCTGGATGACCGAAGCCCTGAGTACAGGGCAGTCGTCAACAGTTCAACACGCAGAATAGGTTTGCGTCTTGATATGCTGTGTGGACGAGGGCATGCCCACGGTACATCTTAACCTATCCGGGGGTCGGATAGGCGAAAGTCCAGTATTGGACTGGGAGTACAGCCTGATAGGGTGTTGCAGAGACCCATCTGATAGGCTAGTATAAAAAACTCTGCTGTACATGGCAC
B9: Porcine pestivirus 1 (nucleic acid, listed as Pestivirus sp.)
DNA: GCAGATATCGGTGGTGGACCTGGGGGTTGGGCTCACCGTGCCCCTTCATGGGGTAGACCTCACTGCTTGATAGAGTGCCGGCGGATGCCTCAGGTAAGAGTATAAAATCCGTTGTTCACTAAC
modifications: chemistry not fully specified; the letters are possibly those of the target site
B10: Porcine pestivirus isolate Bungowannah (nucleic acid, listed as Pestivirus sp.)
DNA: TACGCGGGGTATAACGACAGTAGTTCAAGTGTCGTTATGCATCATTGGCCATAACAAATTATCTAATTTGGAATAGGGACCTGCGACCTGTACGAAGGCCGAGCGTCGGTAGCCATTCCGACTAGTAGGACTAGTACAAATAGGTCAACTGGTTGAGCAGGTGAGTGTGCTGCAGCGGCTAAGCGGTGAGTACACCGTATTCGTCAACAGGTGCTACTGGAAAGGATCACCCACTAGCGATGCCTGTGTGGACGAGGACATGTCCAAGCCAATGTTATCAGTAGCGGGGGTCGTTACTGAGAAAGCTGCCCAGAATGGGTAGTTGCACATACAGTCTGATAGGATGCCGGCGGATGCCCTGTATTTTGACCAGTATAAATATTATCCGTTGTAAAGCAT
B11: Pegivirus I (nucleic acid)
DNA: AGAATGGTCTAAGTGGTTGCCACCGTGGTCCGAAGGGGAGGAGGACCTACGCTGCCAGGGTTGGCAGGTCGTAAATCCCGGGTGTAGGAGATCCCTCCTTGTTAGGACTGCTGGTAGCTGGGGGGTCGGTGACCCCCTGGGCAACCGCCAAACCCGGACGACCGGGTGGCGGCTCCATGTTGGCACGGTCCACAGGTGTGAACCCTACCGGTGTGAATAAGGGTTGGTGGTTGCGGTCCACCTTAAACGTAGTATGCATTGGGCTTGGTAAAACACCGCTCGTAGTACGGAACGCCGCCTTTAAAGACACAGTAGGCGTAGCCGGCGGGTTGACAATCCATACGGGGGGTGGGGTGTGGTCATGGATCTGTCCACACCACCTTCATGCGGCCCTCTAAGCAAGCCATACCGGGGGGAGGCGCGCGGCACCGCACTGCCGGGCAAGGGGAAGAACCTTCGGGTGACCCCCCCCCAACCACCGTCCGATCAATGCTAATGTTGCGTTTAGGCGTGACACCGGCACA
modifications: Pegivirus I

The molecules below were run on HEK293 cells. Conditions: luminescence from secreted Gluc in supernatant 24 hours after transfection of HEK293 cells; circular RNA encoding Gluc with the named IRES (UTR truncated to 675 nt).
Format: cell-based, human

Row | Molecule | Expression
1 | B1 | 5.36E+05
2 | B2 | 8.82E+06
3 | B3 | 6.85E+05
4 | B4 | 1.35E+06
5 | B5 | 98850000
6 | B6 | 8.07E+04
7 | B7 | 8.56E+04
8 | B8 | 4.72E+05
9 | B9 | 9.46E+04
10 | B10 | 1.10E+07
11 | B11 | 8.02E+04
